Assay results from paper PMC10617981 (2023).

Molecular target: T1, SND1 recombinant protein (Origene, TP300059) (human, UniProt Q7KZF4 1-910, site-specific cysteine labeling with the RED-MALEIMIDE 2nd Generation kit (fluorescent dye))
T1 chain: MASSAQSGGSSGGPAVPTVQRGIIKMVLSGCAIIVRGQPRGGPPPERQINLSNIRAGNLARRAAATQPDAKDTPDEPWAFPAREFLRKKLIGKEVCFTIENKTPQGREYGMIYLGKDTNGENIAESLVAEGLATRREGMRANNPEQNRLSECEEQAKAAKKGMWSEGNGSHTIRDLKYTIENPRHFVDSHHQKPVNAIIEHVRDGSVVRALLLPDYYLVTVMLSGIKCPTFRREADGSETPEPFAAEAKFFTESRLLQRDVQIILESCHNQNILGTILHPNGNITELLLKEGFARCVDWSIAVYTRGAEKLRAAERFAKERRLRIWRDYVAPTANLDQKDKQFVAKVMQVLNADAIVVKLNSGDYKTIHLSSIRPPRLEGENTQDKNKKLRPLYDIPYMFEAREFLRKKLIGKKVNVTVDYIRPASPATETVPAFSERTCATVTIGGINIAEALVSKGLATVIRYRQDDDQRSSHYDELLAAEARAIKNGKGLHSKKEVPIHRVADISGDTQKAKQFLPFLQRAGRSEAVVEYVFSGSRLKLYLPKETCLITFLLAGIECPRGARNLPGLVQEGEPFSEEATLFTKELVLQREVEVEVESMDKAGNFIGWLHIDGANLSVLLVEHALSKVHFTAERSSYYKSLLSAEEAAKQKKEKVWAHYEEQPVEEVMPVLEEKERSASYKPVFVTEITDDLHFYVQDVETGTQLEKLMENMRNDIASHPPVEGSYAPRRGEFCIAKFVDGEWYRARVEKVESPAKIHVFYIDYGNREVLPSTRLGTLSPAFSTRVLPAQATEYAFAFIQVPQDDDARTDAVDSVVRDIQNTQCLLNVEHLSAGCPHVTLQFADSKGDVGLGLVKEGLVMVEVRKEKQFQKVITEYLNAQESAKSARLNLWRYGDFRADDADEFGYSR
Experiment: MST

B1: NSP9 recombinant protein (Abcam, ab289608) (natural protein)
chain: NNELSPVALRQMSCAAGTTQTACTDDNALAYYNTTKGGRFVLALLSDLQDLKWARFPKSDGTGTIYTELEPPCRFVTDTPKGPKVKYLYFIKGLNNLNRGMVLGSLAATVRLQ
Binder B1 has a Kd of 8.8 µM.
